Data on 4 sequences can be found in the supplement of paper PMC5998384.

The test system of data set [1] is HeLa Kyoto. The data set can be described thus: solubility in G1/S (NP-40 vs SDS abundance) (log2 ratio); higher = more soluble. To be noted: cell cycle stage: G1/S.
Data set [2] has as its system HeLa Kyoto. The data set can be described thus: melting temperature (median over replicates), in situ; higher = more thermally stable.
Data set [3] has as its system HeLa Kyoto. The data set can be described thus: solubility change mitosis vs G1/S (difference of NP-40 vs SDS log2 ratios) (log2 ratio difference); higher = more soluble in mitosis.
The test system of data set [4] is HeLa Kyoto. The data set can be described thus: thermal stability score vs G1/S (z-score of summed log2 fold changes over temperatures); higher = more thermally stable than in G1/S.
The mark [5] stands for this setting: cell cycle stage: early G1 (4.5 h after nocodazole release).
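Wherever melting temperature (median over replicates), in situ is given: HeLa Kyoto cells synchronized by double thymidine or nocodazole block, proteins quantified by TMT10plex mass spectrometry, three independent biological replicates.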
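Wherever solubility change mitosis vs G1/S (difference of NP-40 vs SDS log2 ratios) is given: synchronized HeLa Kyoto cells (double thymidine block for G1/S, nocodazole release for mitosis), protein amounts in NP-40 versus SDS lysates quantified by mass spectrometry, three biological replicates.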
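Wherever solubility in G1/S (NP-40 vs SDS abundance) is given: HeLa Kyoto cells arrested at G1/S by double thymidine block, proteins quantified by TMT10plex mass spectrometry in mild NP-40 versus SDS extracts, three biological replicates.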
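Wherever thermal stability score vs G1/S (z-score of summed log2 fold changes over temperatures) is given: synchronized HeLa Kyoto cells, proteins quantified by TMT10plex mass spectrometry, three biological replicates, mitosis taken 0.5 h after nocodazole release, G1/S directly after double thymidine block.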

Turning to “MADPEVCCFITKILCAHGGRMALDALLQEIALSEPQLCEVLQVAGPDRFVVLETGGEAGITRSVVATTRARVCRRKYCQRPCDNLHLCKLNLLGRCNYSQSERNLCKYSHEVLSEENFKVLKNHELSGLNKEELAVLLLQSDPFFMPEICKSYKGEGRQQICNQQPPCSRLHICDHFTRGNCRFPNCLRSHNLMDRKVLAIMREHGLNPDVVQNIQDICNSKHMQKNPPGPRAPSSHRRNMAYRARSKSRDRFFQGSQEFLASASASAERSCTPSPDQISHRASLEDAPVDDLTRKFTYLGSQDRARPPSGSSKATDLGGTSQAGTSQRFLENGSQEDLLHGNPGSTYLASNSTSAPNWKSLTSWTNDQGARRKTVFSPTLPAARSSLGSLQTPEAVTTRKGTGLLSSDYRIINGKSGTQDIQPGPLFNNNADGVATDITSTRSLNYKSTSSGHREISSPRIQDAGPASRDVQATGRIADDADPRVALVNDSLSDVTSTTSSRVDDHDSEEICLDHLCKGCPLNGSCSKVHFHLPYRWQMLIGKTWTDFEHMETIEKGYCNPGIHLCSVGSYTINFRVMSCDSFPIRRLSTPSSVTKPANSVFTTKWIWYWKNESGTWIQYGEEKDKRKNSNVDSSYLESLYQSCPRGVVPFQAGSRNYELSFQGMIQTNIASKTQKDVIRRPTFVPQWYVQQMKRGPDHQPAKTSSVSLTATFRPQEDFCFLSSKKYKLSEIHHLHPEYVRVSEHFKASMKNFKIEKIKKIENSELLDKFTWKKSQMKEEGKLLFYATSRAYVESICSNNFDSFLHETHENKYGKGIYFAKDAIYSHKNCPYDAKNVVMFVAQVLVGKFTEGNITYTSPPPQFDSCVDTRSNPSVFVIFQKDQVYPQYVIEYTEDKACVIS [ZC3HAV1]”, in data set [1], the “solubility in G1/S (log2)” value was -0.202. The melting temperature stood at 48.1 °C in data set [2] (cell cycle stage: G1/S) and 48.8 °C in data set [2] (cell cycle stage: mitosis). Also, the “solubility change mitosis (log2)” value in data set [3] is 0.0381. Also, the results for the thermal stability score in data set [4] (setting [5]) and in data set [4] (cell cycle stage: mitosis) were 1.07 and 1.97, respectively.

With “MADPRVRQIKIKTGVVKRLVKEKVMYEKEAKQQEEKIEKMRAEDGENYDIKKQAEILQESRMMIPDCQRRLEAAYLDLQRILENEKDLEEAEEYKEARLVLDSVKLEA [TBCA]”, the “solubility in G1/S (log2)” value in data set [1] is 0.241. Further, the melting temperature in data set [2] (cell cycle stage: G1/S) worked out at 55.4 °C; in data set [2] (cell cycle stage: mitosis), 53 °C. Besides, the “solubility change mitosis (log2)” value in data set [3] worked out at 0.298. Also, the values for the thermal stability score in data set [4] (setting [5]) and in data set [4] (cell cycle stage: mitosis) were -7.45 and -6.72, respectively.

Regarding “MADPWQECMDYAVTLARQAGEVVCEAIKNEMNVMLKSSPVDLVTATDQKVEKMLISSIKEKYPSHSFIGEESVAAGEKSILTDNPTWIIDPIDGTTNFVHRFPFVAVSIGFAVNKKIEFGVVYSCVEGKMYTARKGKGAFCNGQKLQVSQQEDITKSLLVTELGSSRTPETVRMVLSNMEKLFCIPVHGIRSVGTAAVNMCLVATGGADAYYEMGIHCWDVAGAGIIVTEAGGVLMDVTGGPFDLMSRRVIAANNRILAERIAKEIQVIPLQRDDED [IMPA1]”, in data set [1], the “solubility in G1/S (log2)” value is 0.0966. Besides, the melting temperature in data set [2] (cell cycle stage: G1/S) was 59.9 °C; in data set [2] (cell cycle stage: mitosis), 61.1 °C. In addition, in data set [3], the “solubility change mitosis (log2)” value is -0.19. The thermal stability score in data set [4] (setting [5]) was -1.12; in data set [4] (cell cycle stage: mitosis), -2.39.

For “MADSASESDTDGAGGNSSSSAAMQSSCSSTSGGGGGGGGGGGGGKSGGIVISPFRLEELTNRLASLQQENKVLKIELETYKLKCKALQEENRDLRKASVTIQARAEQEEEFISNTLFKKIQALQKEKETLAVNYEKEEEFLTNELSRKLMQLQHEKAELEQHLEQEQEFQVNKLMKKIKKLENDTISKQLTLEQLRREKIDLENTLEQEQEALVNRLWKRMDKLEAEKRILQEKLDQPVSAPPSPRDISMEIDSPENMMRHIRFLKNEVERLKKQLRAAQLQHSEKMAQYLEEERHMREENLRLQRKLQREMERREALCRQLSESESSLEMDDERYFNEMSAQGLRPRTVSSPIPYTPSPSSSRPISPGLSYASHTVGFTPPTSLTRAGMSYYNSPGLHVQHMGTSHGITRPSPRRSNSPDKFKRPTPPPSPNTQTPVQPPPPPPPPPMQPTVPSAATSQPTPSQHSAHPSSQP [CCDC6]”, the “solubility in G1/S (log2)” value in data set [1] is 0.826. Also, the values for the melting temperature in data set [2] (cell cycle stage: G1/S) and in data set [2] (cell cycle stage: mitosis) were 53.5 °C and 53.6 °C, respectively. In data set [3], the “solubility change mitosis (log2)” value was -0.174. Further, the thermal stability score in data set [4] (setting [5]) was -2.05; in data set [4] (cell cycle stage: mitosis), 0.137.
